This assay relates to aggrecan (ACAN). Briefly: Rat nucleotomy model, immunohistochemistry for aggrecan. Particulars: six weeks. In kind it is in vivo, Sprague-Dawley rats. Here is the method: Animal Model Nucleotomy: In total, eight-weeks-old female Sprague-Dawley rats (220-240 g) were purchased from Orient Bio Inc., Korea, and were acclimatized for a week at a life/dark cycle of 12/12 h (temperature; 22±1° C. and relative humidity; 50%±1%) and free approach to food and water. The animal experiments were performed according to the direction approved by the Institutional Animal Care and Use Committee (IACUC) of CHA Bundang Medical Center (IACUC 200141). At the beginning of the surgery, the peritoneal site was sterilized with 70% alcohol. Afterward, rats were thoroughly anesthetized with a general anesthesia mixture of Zoletil® (50 mg/kg Virbac Laboratories, France) and Rompun® (10 mg/kg, Bayer, Korea) injected intraperitoneally. […]
Immunohistochemistry: After six weeks of implantation, rats were euthanized via excess carbon dioxide inhalation and coccygeal discs were collected, and immunohistochemical analysis was performed for aggrecan (disc matrix component), collagen type II (a component of disc NP matrix), CGRP (pain-marker), Iba1 (pan-macrophage), CD86 (M1-macrophage) and CD163(M2-macrophage). […] The sections were mounted and finally examined using a fluorescence microscope (Zeiss 880, Germany and Leica SP5, Germany). The percentage of the positive area and cell number relative to DAPI was calculated by using ImageJ Software.

We go through 1 molecule from patent US20260216095A1, “NANOSHEET-HYDROGEL COMPOSITES AND METHODS OF US” (Rutgers, The State University of New Jersey, priority 2023, published 2026).

B1: GDF-5 alone: growth differentiation factor 5 (Peprotech, Catalog No. 120-01), given as saline solution (protein, UniProt P43026 382-501, looked up)
Growth/differentiation factor …: APLATRQGKRPSKNLKARCSRKALHVNFKDMGWDDWIIAPLEYEAFHCEGLCEFPLRSHLEPTNHAVIQTLMNSMDPESTPPTCCVPTRLSPISILFIDSANNVVYKQYEDMVVESCGCR
Regarding B1, the “aggrecan expression (IHC)” value was “decreased aggrecan expression”.
